Results taken from paper PMC9482650, “Quantitative fragmentomics allow affinity mapping of interactomes” (Nature Communications, 2022).
Each block holds one binder with its values, some of them ahead of it.

Legend:
Experiment in all cases: holdup assay
Parameters in all cases: key: below the threshold = too weak to quantify, mostly under pKd 3.1 to 4
[1] = target: T1, MPDZ_5, O75970
T1 sequence (O75970 695-796, limits assumed, looked up): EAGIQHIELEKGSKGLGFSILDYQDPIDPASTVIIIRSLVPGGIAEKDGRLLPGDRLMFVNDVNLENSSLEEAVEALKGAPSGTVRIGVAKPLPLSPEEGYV

[2] = target: NOS1, P29475
[3] = target: ARHGEF12, Q9NZN5-2
[4] = target: T2, APBA1_1, Q02410
T2 sequence (Q02410 651-752, limits assumed, looked up): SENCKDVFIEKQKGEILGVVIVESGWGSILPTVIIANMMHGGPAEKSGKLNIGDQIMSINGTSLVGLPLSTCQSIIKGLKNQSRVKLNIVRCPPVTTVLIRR

[5] = target: Inadl_3, Q8NI35
[6] = target: T3, DLG3_1, Q92796
T3 sequence (Q92796 125-227, limits assumed, looked up): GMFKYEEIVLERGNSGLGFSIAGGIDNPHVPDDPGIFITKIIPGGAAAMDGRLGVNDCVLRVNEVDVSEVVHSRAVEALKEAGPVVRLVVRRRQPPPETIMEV

[7] = target: T4, PCLO, Q9Y6V0
T4 sequence (Q9Y6V0 4491-4600, limits assumed, looked up): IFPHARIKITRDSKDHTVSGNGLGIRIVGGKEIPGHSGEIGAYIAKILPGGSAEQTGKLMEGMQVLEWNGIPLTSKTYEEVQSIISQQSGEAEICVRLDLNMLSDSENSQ

[8] = target: LAP2, Q96RT1
[9] = target: IL16_3, Q14005
[10] = target: MAGI2_5, Q86UL8
[11] = target: Inadl_9, Q8NI35
[12] = target: Inadl_4, Q8NI35
[13] = target: MAGI1_2, Q96QZ7
[14] = target: GIPC2, Q8TF65
[15] = target: T5, LNX2_2, Q8N448
T5 sequence (Q8N448 334-432, limits assumed, looked up): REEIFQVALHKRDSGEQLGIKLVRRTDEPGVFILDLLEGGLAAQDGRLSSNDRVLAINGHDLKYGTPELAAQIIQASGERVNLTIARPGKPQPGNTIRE

[16] = target: T6, RHPN1, Q8TCX5
T6 sequence (Q8TCX5 508-602, limits assumed, looked up): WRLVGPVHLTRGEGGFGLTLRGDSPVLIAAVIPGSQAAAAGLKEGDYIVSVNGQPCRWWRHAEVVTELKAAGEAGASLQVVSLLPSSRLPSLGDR

[17] = target: MAGI2_2, Q86UL8
[18] = target: T7, DLG3_3, Q92796
T7 sequence (Q92796 374-475, limits assumed, looked up): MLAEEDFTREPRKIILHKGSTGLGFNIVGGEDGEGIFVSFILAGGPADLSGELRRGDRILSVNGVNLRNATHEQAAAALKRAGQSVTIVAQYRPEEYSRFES

[19] = target: T8, GRIP1_5, Q9Y3R0
T8 sequence (Q9Y3R0 568-668, limits assumed, looked up): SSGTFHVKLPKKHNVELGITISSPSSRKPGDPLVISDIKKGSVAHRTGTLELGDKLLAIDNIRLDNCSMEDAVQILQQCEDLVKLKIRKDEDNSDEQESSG

[20] = target: DLG1_1, Q12959
[21] = target: IL16_4, Q14005
[22] = target: FRMPD3, Q5JV73
[23] = target: T9, MPDZ_12, O75970
T9 sequence (O75970 1857-1958, limits assumed, looked up): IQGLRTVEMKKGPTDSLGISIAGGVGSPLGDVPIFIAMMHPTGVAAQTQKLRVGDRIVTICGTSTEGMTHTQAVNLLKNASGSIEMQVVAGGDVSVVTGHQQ

[24] = target: T10, GRIP1_3, Q9Y3R0
T10 sequence (Q9Y3R0 247-346, limits assumed, looked up): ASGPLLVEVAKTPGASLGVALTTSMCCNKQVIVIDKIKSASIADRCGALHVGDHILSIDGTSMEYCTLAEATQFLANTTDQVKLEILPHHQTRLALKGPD

[25] = target: T11, PDZRN3_1, Q9UPQ7
T11 sequence (Q9UPQ7 244-349, limits assumed, looked up): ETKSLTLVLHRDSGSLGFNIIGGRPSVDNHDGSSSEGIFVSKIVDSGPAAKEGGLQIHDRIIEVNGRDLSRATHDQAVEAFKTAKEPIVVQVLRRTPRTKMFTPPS

[26] = target: FRMPD4, Q14CM0
[27] = plain residues with an end cap or a label only (N-terminal biotin on a linker: ttds)
[28] = plain residues with an end cap or a label only (N-terminal biotin on a linker: ahx)
[29] = plain residues with an end cap or a label only (N-terminal biotin on a linker: ado-ado)

Chain of MAGI2_2, Q86UL8 (Q86UL8 410-522): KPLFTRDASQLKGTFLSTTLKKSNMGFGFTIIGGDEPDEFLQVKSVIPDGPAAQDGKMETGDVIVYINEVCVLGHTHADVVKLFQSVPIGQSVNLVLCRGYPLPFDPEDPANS
Chain of MAGI2_5, Q86UL8 (Q86UL8 915-1017): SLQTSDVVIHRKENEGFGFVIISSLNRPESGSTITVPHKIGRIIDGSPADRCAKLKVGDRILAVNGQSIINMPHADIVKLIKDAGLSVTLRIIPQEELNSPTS
Chain of GIPC2, Q8TF65 (Q8TF65 112-203): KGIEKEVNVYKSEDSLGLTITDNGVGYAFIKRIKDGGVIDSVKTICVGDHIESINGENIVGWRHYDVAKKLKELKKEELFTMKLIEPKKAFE
Chain of Inadl_9, Q8NI35 (Q8NI35 1530-1615): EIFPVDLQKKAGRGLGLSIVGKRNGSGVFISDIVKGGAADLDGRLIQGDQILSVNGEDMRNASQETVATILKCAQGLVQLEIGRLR
Chain of ARHGEF12, Q9NZN5-2 (Q9NZN5 other isoform, or with tags, fused parts or gaps): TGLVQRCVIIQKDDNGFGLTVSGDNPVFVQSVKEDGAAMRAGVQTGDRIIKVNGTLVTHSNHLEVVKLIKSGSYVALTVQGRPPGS
Chain of IL16_3, Q14005 (Q14005 1107-1207): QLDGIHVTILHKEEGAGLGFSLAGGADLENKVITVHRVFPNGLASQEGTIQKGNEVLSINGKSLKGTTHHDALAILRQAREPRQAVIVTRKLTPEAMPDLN
Chain of Inadl_3, Q8NI35 (Q8NI35 359-469): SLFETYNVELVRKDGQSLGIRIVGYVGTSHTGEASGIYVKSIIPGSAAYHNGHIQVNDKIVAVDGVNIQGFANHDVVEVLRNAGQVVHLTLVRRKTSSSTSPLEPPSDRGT
Chain of IL16_4, Q14005 (Q14005 1229-1329): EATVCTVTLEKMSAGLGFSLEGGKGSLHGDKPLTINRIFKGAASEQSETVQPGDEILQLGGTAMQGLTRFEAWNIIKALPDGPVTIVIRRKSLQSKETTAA
Chain of FRMPD3, Q5JV73 (Q5JV73 12-100): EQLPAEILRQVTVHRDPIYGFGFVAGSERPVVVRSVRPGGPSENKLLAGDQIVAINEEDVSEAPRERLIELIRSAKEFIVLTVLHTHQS
Chain of FRMPD4, Q14CM0 (Q14CM0 67-160): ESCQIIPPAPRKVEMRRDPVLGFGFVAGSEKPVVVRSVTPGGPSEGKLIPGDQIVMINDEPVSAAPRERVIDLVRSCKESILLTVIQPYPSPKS
Chain of LAP2, Q96RT1 (Q96RT1 other isoform, or with tags, fused parts or gaps): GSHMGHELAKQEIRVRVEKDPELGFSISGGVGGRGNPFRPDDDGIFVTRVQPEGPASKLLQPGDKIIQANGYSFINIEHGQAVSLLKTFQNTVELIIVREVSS
Chain of NOS1, P29475 (P29475 9-101): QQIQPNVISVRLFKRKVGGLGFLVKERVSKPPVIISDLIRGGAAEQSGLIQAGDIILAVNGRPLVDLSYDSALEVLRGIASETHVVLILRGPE
Chain of MAGI1_2, Q96QZ7 (Q96QZ7 456-580): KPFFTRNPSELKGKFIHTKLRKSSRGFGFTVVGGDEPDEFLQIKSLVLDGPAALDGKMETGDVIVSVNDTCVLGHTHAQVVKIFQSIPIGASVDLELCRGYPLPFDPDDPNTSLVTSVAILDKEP
Chain of Inadl_4, Q8NI35 (Q8NI35 547-651): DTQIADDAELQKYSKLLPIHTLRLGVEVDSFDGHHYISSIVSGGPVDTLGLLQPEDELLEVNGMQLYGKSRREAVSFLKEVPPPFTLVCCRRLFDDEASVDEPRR

- pKd [1, 27]: below the threshold
- pKd [2, 27]: 3.92
- pKd [3, 27]: 3.85
- pKd [4, 27]: below the threshold
- pKd [5, 27]: 4.36
- pKd [6, 27]: below the threshold
- pKd [7, 27]: below the threshold
- pKd [8, 27]: 3.8
- pKd [9, 27]: below the threshold
- pKd [10, 27]: 4.45
- pKd [11, 27]: 3.98
- pKd [12, 27]: below the threshold
- pKd [13, 27]: below the threshold
- pKd [14, 27]: 3.49
- pKd [15, 27]: 4.66
- pKd [16, 27]: 4.61
- pKd [17, 27]: 4.1
- pKd [18, 27]: below the threshold
- pKd [19, 27]: below the threshold
- pKd [20, 27]: 4.39
- pKd [21, 27]: below the threshold
- pKd [22, 27]: below the threshold
- pKd [23, 27]: below the threshold
- pKd [24, 27]: below the threshold
- pKd [25, 27]: 4.3
- pKd [26, 27]: below the threshold
Binder: NPDALPETLV [ARHGAP6, O43182]

- pKd [1, 28]: below the threshold
- pKd [2, 28]: 3.85
- pKd [3, 28]: below the threshold
- pKd [4, 28]: below the threshold
- pKd [5, 28]: 3.86
- pKd [6, 28]: 4.09
- pKd [7, 28]: below the threshold
- pKd [8, 28]: 5.73
- pKd [9, 28]: below the threshold
- pKd [10, 28]: below the threshold
- pKd [11, 28]: 3.74
- pKd [12, 28]: below the threshold
- pKd [13, 28]: below the threshold
- pKd [14, 28]: below the threshold
- pKd [15, 28]: 4.44
- pKd [16, 28]: 3.8
- pKd [17, 28]: below the threshold
- pKd [18, 28]: below the threshold
- pKd [19, 28]: below the threshold
- pKd [20, 28]: 4.29
- pKd [21, 28]: below the threshold
- pKd [22, 28]: below the threshold
- pKd [23, 28]: 4.4
- pKd [24, 28]: below the threshold
- pKd [25, 28]: below the threshold
- pKd [26, 28]: below the threshold
Binder: AKPQPVDSWV [ARVCF, O00192]

- pKd [1, 28]: below the threshold
- pKd [2, 28]: 3.55
- pKd [3, 28]: 4.44
- pKd [4, 28]: below the threshold
- pKd [5, 28]: 3.5
- pKd [6, 28]: below the threshold
- pKd [7, 28]: below the threshold
- pKd [8, 28]: 3.59
- pKd [9, 28]: below the threshold
- pKd [10, 28]: 5.32
- pKd [11, 28]: 3.87
- pKd [12, 28]: below the threshold
- pKd [13, 28]: below the threshold
- pKd [14, 28]: below the threshold
- pKd [15, 28]: 4.27
- pKd [16, 28]: 3.95
- pKd [17, 28]: below the threshold
- pKd [18, 28]: below the threshold
- pKd [19, 28]: below the threshold
- pKd [20, 28]: 3.72
- pKd [21, 28]: below the threshold
- pKd [22, 28]: below the threshold
- pKd [23, 28]: below the threshold
- pKd [24, 28]: below the threshold
- pKd [25, 28]: below the threshold
- pKd [26, 28]: below the threshold
Binder: KDECVIATEV [DLL1, O00548]

- pKd [1, 29]: below the threshold
- pKd [2, 29]: below the threshold
- pKd [3, 29]: 3.52
- pKd [4, 29]: below the threshold
- pKd [5, 29]: below the threshold
- pKd [6, 29]: below the threshold
- pKd [7, 29]: below the threshold
- pKd [8, 29]: below the threshold
- pKd [9, 29]: below the threshold
- pKd [10, 29]: below the threshold
- pKd [11, 29]: below the threshold
- pKd [12, 29]: below the threshold
- pKd [13, 29]: below the threshold
- pKd [14, 29]: below the threshold
- pKd [15, 29]: below the threshold
- pKd [16, 29]: below the threshold
- pKd [17, 29]: below the threshold
- pKd [18, 29]: below the threshold
- pKd [19, 29]: below the threshold
- pKd [20, 29]: below the threshold
- pKd [21, 29]: 3.68
- pKd [22, 29]: below the threshold
- pKd [23, 29]: below the threshold
- pKd [24, 29]: below the threshold
- pKd [25, 29]: below the threshold
- pKd [26, 29]: 3.71
Binder: PDSYHRRDFW [U2AF2, P26368]
